Paper doi:10.1101/2022.03.25.485857

Molecular target: human α-thrombin (human)
Assay: enzyme inhibition

Substance | Ki [nM]
chimadanin with a single sTyr at Tyr31 (natural protein) | 1.5
madanin-1 sulfated at both Tyr32 and Tyr35 (natural protein) | 0.5
madanin-1 with a single sTyr at Tyr32 (natural protein) | 1.3
madanin-1 with a single sTyr at Tyr35 (natural protein) | 6.1
wildtype madanin-1 (natural protein) | 16

Continued, values first:

Ki [nM] | Substance
0.1 | chimadanin sulfated at both Tyr28 and Tyr31 (natural protein)
0.6 | chimadanin with a single sTyr at Tyr28 (natural protein)
12.9 | wildtype chimadanin (natural protein)
